Settings in all cases: both partners purified
Experiment [1] addresses T1, HspA5 substrate binding domain (SBD) (human, UniProt P11021 420-654).
T1 construct: SBD approximately 200 amino acids long; vector pSpeedET; also called HspA5-SBD; Grp78; source: E. coli BL21-Codon plus, purified (cobalt IMAC, TEV cleavage)
The experiment in a line: MST; NTA-labelled TDP-43(102-269), HspA5 titrated, in the presence of UG6 RNA (increasing concentrations; concentration not given).

The target of experiment [2] is T2, HspA1A substrate binding domain (SBD) (human, UniProt P0DMV8 395-641).
T2 construct: SBD approximately 200 amino acids long; vector pSpeedET; also called Hsp70 SBD; source: E. coli BL21-Codon plus, purified (cobalt IMAC, TEV cleavage)
T2 sequence (P0DMV8 395-641): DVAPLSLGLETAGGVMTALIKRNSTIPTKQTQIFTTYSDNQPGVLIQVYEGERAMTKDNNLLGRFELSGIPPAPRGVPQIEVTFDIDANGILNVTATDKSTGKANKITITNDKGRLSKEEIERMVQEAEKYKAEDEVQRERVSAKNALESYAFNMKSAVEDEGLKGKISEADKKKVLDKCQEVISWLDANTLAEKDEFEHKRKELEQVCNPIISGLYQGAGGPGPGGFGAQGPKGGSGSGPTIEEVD
The experiment in a line: MST; 50 nM labelled TDP-43 construct (RED-NTA labelling), ranging concentrations of Hsp70 SBD titrated, MST buffer, premium capillaries, 40% LED, medium MST power; no RNA.

Experiment [3] concerns the target T1, HspA5 substrate binding domain (SBD). Described as above.

Values joined by “and” are separate entries in the source; they are usually repeats but may differ in a detail not shown here. Identical values can stand only once.

T1 sequence (P11021 420-654): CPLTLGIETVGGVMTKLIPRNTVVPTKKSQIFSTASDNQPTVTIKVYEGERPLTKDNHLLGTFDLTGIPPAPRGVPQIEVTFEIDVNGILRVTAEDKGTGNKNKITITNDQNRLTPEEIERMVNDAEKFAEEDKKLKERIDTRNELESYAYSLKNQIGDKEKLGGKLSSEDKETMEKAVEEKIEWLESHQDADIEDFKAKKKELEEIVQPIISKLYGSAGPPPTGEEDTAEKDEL

B1: TDP43_(102-269)-His (domain or fragment, human, UniProt Q13148 102-269, looked up)
chain: KTSDLIVLGLPWKTTEQDLKEYFSTFGEVLMVQVKKDLKTGHSKGFGFVRFTEYETQVKVMSQRHMIDGRWCDCKLPNSKQSQDEPLRSRKVFVGRCTEDMTEDELREFFSQYGDVMDVFIPKPFRAFAFVTFADDQIAQSLCGEDLIIKGISVHISNAEPKHNSNRQ
modifications: labelled with Monolith Protein Labeling Kit RED-NTA
notes: also called RRM domain; RRM domains of TDP-43; source: recombinantly expressed, purified
For B1, the Kd in experiment [1] was 28300 nM; in experiment [2] it was 2350 nM; in experiment [3], 298 nM and 890 nM.

(Values after PMC9114370, “Heat shock protein Grp78/BiP/HspA5 binds directly to TDP-43 and mitigates toxicity associated with disease pathology” (Scientific Reports, 2022).)
